Target: T1, human wildtype KRas4B 1-169 (C-terminal truncated) (human, UniProt P01116-2 1-169)
T1 construct: human wildtype KRas4B isoform, residues 1-169, lacking the C-terminal hyper-variable region; Loaded with GTP for BLI; also called KRas4B^WT; KRas (WT); source: E. coli DE3 Rosetta, purified (Ni-sepharose, TEV cleavage, SEC); not shown: His6, N-terminal, cleaved
Test: BLI; Octet R8; GST fusion (0.7 uM) immobilised on anti-GST biosensors; GTP-loaded KRas4B as analyte (200 nM-15 uM for Rgl2^RA, 20 nM-5 uM for BRAF^RBD); GF buffer (20 mM Tris pH 7.65, 100 mM NaCl, 5 mM MgCl2, 1 mM TCEP); 20°C; double referencing; 1:1 binding model
Settings: both partners purified

B1: GST-Rgl2^RA (Ras association domain of human Rgl2, residues 643-740, fused with GST) (domain or fragment, UniProt O15211 643-740, looked up)
chain: GPGASDCRIIRVQMELGEDGSVYKSILVTSQDKAPSVISRVLKKNNRDSAVASEYELVQLLPGERELTIPASANVFYAMDGASHDFLLRQRRRSSTAT
notes: human Rgl2, residues 643-740, holding the Ras-associating (RA) domain (648-735 in UniProt O15211); A TEV site lies between GST and Rgl2^RA (vector pLEICS2); source: E. coli DE3 Rosetta, purified (glutathione beads, SEC); not shown: GST, N-terminal, kept
Question: Which Kd does the source give for B1 here?
Answer: Its Kd is roughly 1480 nM.
